This passage reports EC50 results from patent US20240218057A1 (ROCKEFELLER UNIVERSITY, published 2024).

Test [1] has as its target T1, SARS-COV-2 RBD (SARS-COV-2, UniProt P0DTC2 319-539).
T1 construct: also called WT RBD
Put plainly: ELISA, RBD coated on plate. A general note: In an ELISA, binding on a coated surface is turned into a signal by an enzyme label.

Test [2] has as its target T2, SARS-COV-2 RBD (SARS-COV-2, UniProt P0DTC2 319-539).
T2 construct: also called WT RBD
Kind of test: ELISA, RBD coated on plate. The source holds these as a separate data set.

Numbering of substitutions follows the chain as printed. Read-outs that look alike come from different tables or passages of the source.

B1: C1046 (antibody, V domains shown)
VH: EVQLVQSGAEVKKPGESLKISCKGSGYSFTSYWIGWVRQMPGKGLEWMGIIYPGDSDTRYSPSFQGQVTISADKSISTAYLQWSSLKASDTAMYYCARMVTSGTYYYDNSGYSSSGPFDYWGQGTLVTVSS
VL: DIQLTQSPSSLSASVGDRVTITCRASQGISSALAWYQQKPGKAPKLLIYDASSLESGVPSRFSGSGSGTDFTLTISSLQPEDFATYYCQQFNNFGPGTKVDIK
Broadly, the EC50 is the concentration giving half of the maximal effect. Higher therefore signals a need for much substance. Molecule B1 had an EC50 in test [1] of 3.8 ng/mL.

B2: C1058 (antibody, V domains shown)
VH: EVQLVESGGGLVQPGGSLRLSCAASGIIVSSNYMNWVRQVPGKGLEWVSVLYSGGSTFYADSVRGRFTISRDNSKNTLFLQMNSLRPEDTAVYYCARDFREGAFDIWGQGTMVTV
VL: DIQLTQSPSFLSASVGDRVTITCRASQGISSYLAWYQQKPGKAPNLLIYAASTLQSGVPSRFSGSGSGTDFTLTISSLQPEDFATYYCQQLNSYSPLFGQGTRLEIK
The molecule B2 had an EC50 in test [1] of 2.13 ng/mL.

B3: C1059 (antibody, V domains shown)
VH: EVQLVESGGGLVQPGGSLRLSCAASGVTVSYNYMHWVRQAPGKGLEWVSVFFPGGSIFYADSVKGRFSISRDNSHNTLYLQMNNLRPEDTAVYYCARDFREGAIDLWGQGTMVTVSS
VL: B2 VL with G16E, N45K, A50G, D70E, F83S, S95P
Molecule B3 gave an EC50 in test [1] of 2.17 ng/mL.

B4: C1065 (antibody, V domains shown)
VH: EVQLVESGGGLIQPGGSLRLSCAASGFTVSRNYMSWVRQAPGKGLEWVSVIYSGGSTFYADSVKGRFTISRDNSKNTLYLQMNSLRAEDTAVYYCARGLPTGEGWNYFDYWGQGTLVTVSS
VL: QSALTQPASVSGSPGQSITISCTGTSSDIGGYHYVSWYQQHPGKAPKLMIYDVSNRPSGISNRFSGSKSGNTASLTISGLQAEDEADYYCSSYASSSVIFGGGTKLTVL
B4 yielded an EC50 in test [2] of 3.52 ng/mL.

B5: C1068 (antibody, V domains shown)
VH: QVQLVESGGGVVQPGRSLRLSCAASGFTFSTFAMHWVRQAPGKGLEWVAVTSYDGSNKYYADSVKGRFTISRDNSKNTLYLQMNSLRAEDTAVYYCARGLLWFGESEYFQHWGQGTLVTVSS
VL: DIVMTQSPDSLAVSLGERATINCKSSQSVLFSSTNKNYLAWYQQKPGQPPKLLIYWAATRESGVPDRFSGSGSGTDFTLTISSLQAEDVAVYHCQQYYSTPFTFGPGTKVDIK
Consider B5, for which the concentration giving a half-maximal response (EC50) in test [2] was 2.48 ng/mL.

B6: C1047 (antibody, V domains shown)
VH: EVQLVQSGAEVKKPGESLKISCKGSGYSFISYWIVWVRQMPGKGLEWIGIIYPGDSDTIYSPSFQGQVTLSADKSISTAYLQWSSLKASDTAIYYCAKMVTSGTSYYETRGYASSGPFDNWGQGTLVTVSS
VL: DIQLTQSPSSLSASVGDRVTITCRASQGISSALAWYQQKPGKAPKLLIYDASSLESGVPSRFSGSGSGTDFTLTISSLQPEDFATYYCQQSDNFGPGTKVDI
In test [1], B6 registered an EC50 of 2.46 ng/mL.

B7: C1063 (antibody, V domains shown)
VH: EVQLVQSGAEVKKPGESLKISCKGYGNSFNNYWIAWVRQMPVKGLEWMGVINPGDSDTRYSPSFQGQVTISVDKSISTAYLQWSSLKASDTAMYYCARTWSPAAVAFFDSWGQGTLVTVS
VL: NFMLTQPHSVSESPGKTVTISCTRSSDSIGSNYVQWYQQRPGSSPTIVIYEDSQRPSGVPHRFSGSFDSSSNSASLTISGLKTEDEADYYCQSWDSGNLVFGGGTKLTVL
B7: the EC50 in test [2] stood at 3.04 ng/mL.

B8: C1043 (antibody, V domains shown)
VH: EVQLVESGGGLVQPGRSLRLSCAASGFIFDNYAMHWVRQAPGKGLEWVSGISWNSDSIGYADSVKGRFTISRDNAKNSLYLQMSSLRAEDTALYYCAKDLLGNYYYYTLDVWGQGTTVTVSS
VL: QSALTQPASVSGSPGQSITISCTGTSSDIGGNNYVSWYQQHPGKAPRLMIFDVSYRPSGVSNRFSGSKSGNTASLTISGLQAEDEADYYCISYTTSSTLGVFGGGTKLTVL
B8 had an EC50 in test [1] of 2.77 ng/mL.

B9: C1048 (antibody, V domains shown)
VH: EVQLVQSGAEVKKPGESLKISCKVSGYSFISHWIGWVRQMPGKGLEWMGIIYPGDSDTRYSPSFQGQVTISADKSISTAYLQWSSLKASDTAMYYCARRGASWELDYWGQGTLVTV
VL: QSVLTQPPSASGTPGQRVTISCSGSSSNIGSNPVSWYQQLPGPAPQLLIYGNDQRPSGVPDRFSGSKSGTSASLAISGLQSEDEADYYCAAWDDSLNGYVFGTGTKVTVL
Molecule B9 displayed an EC50 in test [1] of 2.41 ng/mL.

B10: C1049 (antibody, V domains shown)
VH: EVQLVQSGAEVKKPGESLKISCKSSGYSFISHWIGWVRQMPGKGLEWMGIIWPGDSDTRYSPSFQGQVTISVDKSITTVYLQWSSLKAADTAMYYCARRGSSWEVDYWGQGTLVTVSS
VL: not shown
In turn, B10 displayed an EC50 in test [1] of 2.81 ng/mL.

B11: C1052 (antibody, V domains shown)
VH: QVQLVQSGAEVKKPGASVKVSCKVSGYTLSELSMHWVRQAPGEGLEWLGGFDPEDGETINAQKFQGRVTMTEDRSTDTAYMELSSLRSEDTAVYYCATRGRYCSSGNCYYHHWGQGTLVTVSS
VL: DIQMTQSPSTLSASVGDRVIITCRASQNIHNWLAWYQQKPGKAPKLLIYKASSLESGVPSRFSGSGSGTEFTLTISSLQPDDFATYFCQQYHSYSWTFGQGTKVEIK
B11: a half-maximal effect in test [1] (EC50) was put at 2.64 ng/mL.

B12: C1053 (antibody, V domains shown)
VH: EVQLLESGGGLVQPGGSLRLSCAASGFTFSSYAMNWVRQAPGKGLEWVSAISGSGGGTYYADSVKGRFTISRDNSKNTLYLQMDSLRAEDTAVYYCAKDVPIEQQLVPTFDYWGQGALVTVSS
VL: DIQMTQSPSSLSASVGDRVTITCRASQSISRYLNWYQQKPGKAPKLLIYGASSLQSGVPSRFSGSGSGTDFTLTISSLQPEDFATYWCQQSYSTLSITFGQGTRLEIK
The molecule B12 yielded an EC50 in test [1] of 4.13 ng/mL.

B13: C1054 (antibody, V domains shown)
VH: EVQLLESGGGLVQPGGSLRLSCVVSGFTFSSYAMNWVRQAPGKGLEWVSVIGGSGDGRYYADSVKGRFTISRDNSKNTLYLQMNSLRGDDTAVYYCARDVPVEQQLVPTFDYWGQGTLVTVSS
VL: B12 VL with G50A, D70E, W87Y
In turn, B13 came in with an EC50 in test [1] of 1.84 ng/mL.

B14: C1061 (antibody, V domains shown)
VH: EVQLVESGGGLVQPGGSLRLSCAASGFTFSRYDMHWVRQGTGKGLEWVSAIGTSGDTYYPDSVKGRFTISRENAKNSLYLQMNSLRAGDTAVYYCARGGLQTTTWLFDYWGQGTLVTVSS
VL: B12 VL with G50A, S67A, T85I, W87Y, T94N, L95P, S96P
Take B14: the EC50 in test [1] amounted to 2.26 ng/mL.

B15: C1061 (antibody, V domains shown)
VH: B14 VH
VL: B12 VL with G50A, S67A, T85I, W87Y, T94N, L95P, S96P
Turning to B15, the EC50 in test [2] turned out to be 2.26 ng/mL.

B16: C1062 (antibody, V domains shown)
VH: B14 VH with R31N, G40T, S54A, D61G, I69M, Y109N
VL: B12 VL with S28T, G50A, W87Y, S93T, T94M, L95P, S96P
For the molecule B16, the EC50 in test [2] is 2.61 ng/mL.

B17: C1062 (antibody, V domains shown)
VH: B14 VH with R31N, G40T, S54A, D61G, I69M, Y109N
VL: B12 VL with S28T, G50A, W87Y, S93T, T94M, L95P, S96P
B17: a half-maximal response in test [1] (EC50) required 2.61 ng/mL.

B18: C1030 (antibody, V domains shown)
VH: EVQLVESGGGLVQPGGSLRLSCEASGVIVSSNYMNWVRQAPGKGPEWVSVLYAGGSTFYADSVKGRFTISRDDSKNTLFLQMNNLRAEDTAVYFCARDLIAFGMDVWGQGTTVTVSS
VL: DIQLTQSPSFLSASVGDRVTITCRASQGINSDLAWYQQKPGKAPKLLIYGASTLQSGVPSRFSGSGSGTEFSLTVSSLQPEDFATYYCQQLNSYRRFGGGTKVEIK
Molecule B18 gave an EC50 in test [1] of 2.78 ng/mL.

B19: C1050 (antibody, V domains shown)
VH: EVQLVESGGGLVQPGRSLRLSCAASGFTFDDYGMHWVRQAPGKGLEWVSGISWNGDSIGYADSVKGRFTISRDNAKTSLYLQMNRLRAEDTALYYCAKAASRSTRIGGAFDIWGQGTMVTVSS
VL: QSALTQPASVSGSPGQSITISCTGTSSDVGGYNLVSWYQQHPGKAPKLMIYEGSKRPSGVSNRFSGSKSGNTASLTISGLQAEDEADYYCCSYAYSFTNVFGTGTKVTV
For the molecule B19, in test [1], the EC50 came out at 2.78 ng/mL.

B20: C1051 (antibody, V domains shown)
VH: B19 VH with A23V, M34L, G55S, T69A, K76R
VL: B19 VL with H41Y, G53D, N62H, Y95F
With B20, in test [1], the EC50 came to 1.4 ng/mL.

B21: C1067 (antibody, V domains shown)
VH: QVQLVQSGAEVKKPGASVKVSCKASRDTFTTHYIHWVRQAPGQGLEWMGIINPSGGSISYAQKFQGRVTMTRDTSTSTVYMELSSLRSEDTAVYYCARGGIVPHLSNWFDPWGQGTLVTVSS
VL: EIVLTQSPGTLSLSPGERATLSCRASQSVSSSYLAWYQQKPGQAPRLLIYGASSRATGIPDRFTGSGSGTDFTLTISRLEPEDFAVYYCQQYGRSSGFTFGPGTKVDIK
Consider B21, for which the response in test [2] was half-maximal at 2.93 ng/mL (EC50).

B22: C1055 (antibody, V domains shown)
VH: QVQLVESGGGVVQPGRSLRLSCAASGFTFSTYGMNWVRQAPGKGLEWVALILYDGSDKYYADSVKSRFTISRDNSRNTLYLQMTSLRAEDTAVYYCAKALSSTYYYDASGPDAFDIWGQGTMVTVSS
VL: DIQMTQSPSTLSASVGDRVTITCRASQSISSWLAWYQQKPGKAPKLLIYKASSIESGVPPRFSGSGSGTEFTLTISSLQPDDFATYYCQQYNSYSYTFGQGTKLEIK
In test [1], B22 had an EC50 of 2.71 ng/mL.

B23: C1040 (antibody, V domains shown)
VH: QVQLVESGGGVVQPGRSLRLSCAASGFSFINYNMHWVRQAPGKGLEWVAVIWYDGSNKYYADSVKGRFTISRDNSKNTLYLQMNSLRVEDTAVYYCARDPAITEAEIDYWGQGTLVTVSS
VL: DVVMTQSPLSLPVTLGQAASISCRSSQSLVHSDGNTYLNWFQQRPGQSPRRLIYRVSNRDSGVPDRFSASGSGTDFTLKISRVEAEDVGVYYCMQGTHWPWTFGQGTKVEIK
B23 registered an EC50 in test [1] of 2.08 ng/mL.

B24: C1066 (antibody, V domains shown)
VH: EVQLVESGGGLVQPGRSLRLSCAASGFMFDDYAMHWVRQAPGKGLEWVSGINWSSADIGYVDSVKGRFTISRDNAKNSLYLQMNSLRTEDTAFYYCAKGWFGELLGGSDSWGQGTLVTVSS
VL: QLVLTQSSSASASLGSSVKLTCTLNSGHSSYIIAWHQQQPGKAPRYLMKLEGSGSYNKGSGVPDRFSGSSSGADRYLTISNLQFEDEADYYCATWDSNTQVFGGGTKLTVL
In the case of B24, in test [2], the response was half-maximal at 3.01 ng/mL (EC50).
